This note sets out measurements from patent publication US20150344570A1 (published 2015).

First the molecules themselves.
B1: GpH7-A5/GpH7-B3 variant (H268E)/GpL16-k0 (antibody, human IgG1, kappa)
heavy 1: not shown
heavy 2: not shown
light: DIVMTQSPLSLPVTPGEPASISCQASESLVHSNRNTYLHWYLQKPGQSPQLLIYKVSNRFSGVPDRFSGSGSGTDFTLKISRVEAEDVGVYYCSQNTHVPPTFGQGTKVEIERTVAAPSVFIFPPSDEQLKSGTASVVCLLNNFYPREAKVQWKVDNALQSGNSQESVTEQDSKDSTYSLSSTLTLSKADYEKHKVYACEVTHQGLSSPVTKSFNRGEC
notes: also called He Ab H268_10E
B2: GpH7-A5/GpH7-B3 variant (K334E)/GpL16-k0 (antibody, human IgG1, kappa)
heavy 1: not shown
heavy 2: not shown
light: B1 light
notes: also called He Ab K334_10E
B3: GpH7-A5/GpH7-B3 variant (K326D)/GpL16-k0 (antibody, human IgG1, kappa)
heavy 1: not shown
heavy 2: not shown
light: B1 light
notes: also called He Ab K326_09D
B4: GpH7-A5/GpH7-B3 variant (K326I)/GpL16-k0 (antibody, human IgG1, kappa)
heavy 1: not shown
heavy 2: not shown
light: B1 light
notes: also called He Ab K326_07I
B5: GpH7-A5/GpH7-B3 variant (K334I)/GpL16-k0 (antibody, human IgG1, kappa)
heavy 1: not shown
heavy 2: not shown
light: B1 light
notes: also called He Ab K334_07I
B6: GpH7-A5/GpH7-B3 variant (K334D)/GpL16-k0 (antibody, human IgG1, kappa)
heavy 1: not shown
heavy 2: not shown
light: B1 light
notes: also called He Ab K334_09D
B7: GpH7-A5/GpH7-B3 variant (K326T)/GpL16-k0 (antibody, human IgG1, kappa)
heavy 1: not shown
heavy 2: not shown
light: B1 light
notes: also called He Ab K326_14T
B8: GpH7-A5/GpH7-B3-15-02A/GpL16-k0 (antibody, human IgG1, kappa)
heavy 1: not shown
heavy 2: not shown
light: B1 light
notes: also called GpH7-A5/GpH7-B3 variant (S298A)/GpL16-k0; He Ab S298_02A

T1 sequence (P08637 17-208): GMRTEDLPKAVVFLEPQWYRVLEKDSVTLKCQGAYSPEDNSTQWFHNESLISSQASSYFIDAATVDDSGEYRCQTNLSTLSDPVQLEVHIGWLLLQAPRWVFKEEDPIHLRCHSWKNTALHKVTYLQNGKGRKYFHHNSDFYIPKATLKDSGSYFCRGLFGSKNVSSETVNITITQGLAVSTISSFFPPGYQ

This assay has as its target T1, FcgRIIIa F (FcγRIIIa type F) extracellular domain with C-terminal His tag (human, UniProt P08637 17-208).
T1 construct: extracellular domain; also called FcγRIIIa F; 3aF; not shown: His tag attached to the C terminus
Description: SPR (Biacore); relative binding activity of the heterodimerized antibody with the alteration in one H chain. On the technique in general: In SPR one partner is held on a chip, and binding of the other changes the refractive index at the surface.
In the case of B1, the He/Con_3aF is 184 % of GpH7-A5/GpH7-B3/GpL16-k0 (= 100). With B2 the figure was 186 % of GpH7-A5/GpH7-B3/GpL16-k0 (= 100). Next, B3: 148 % of GpH7-A5/GpH7-B3/GpL16-k0 (= 100); B4: 153 % of GpH7-A5/GpH7-B3/GpL16-k0 (= 100).

Regarding B5, the He/Con_3aF is 156 % of GpH7-A5/GpH7-B3/GpL16-k0 (= 100). With B6 the figure was 164 % of GpH7-A5/GpH7-B3/GpL16-k0 (= 100); with B7, 140 % of GpH7-A5/GpH7-B3/GpL16-k0 (= 100). Next, B8: 151 % of GpH7-A5/GpH7-B3/GpL16-k0 (= 100).
